Holding throughout (experiment): Michaelis–Menten kinetics of oxidation to fluorescent 7-hydroxy metabolite by recombinant CYP1A2
Common to all, as to format: biochemical, human
Common to all, as to settings: other: recombinant CYP1A2, 100 mM Tris-HCl pH 7.4, 37 °C, 95% confidence interval in brackets

Substrate in data set [1]: CC(=O)Oc1ccc(-c2cc3cc(Cl)ccc3oc2=O)cc1
The procedure:
(§1) Baculovirus-insect cell-expressed human CYP1A1, CYP1A2, CYP1B1, CYP2A6, CYP2B6, CYP2C8, CYP2C9, CYP2C19, CYP2D6, CYP2E1, CYP3A4, CYP3A5, and CYP3A7 were purchased from BD Biosciences Discovery Labware (Woburn, MA, USA) and used according to the manufacturer’s instructions.
(§2) The kinetic assays were carried out in 100 μL volume containing 100 mM Tris-HCl buffer pH 7.4, 0–40 μM coumarin derivative or 0–10 μM 7-ethoxyresorufin, 1–25 nM recombinant CYP or 0–0.1 g/L microsomal protein, and 20% NADPH regenerating system. Incubations took place at 37 °C in 96-multiwell plates; the fluorescence was measured with a Victor[2] plate reader (PerkinElmer Life Sciences, Turku, Finland). The detailed conditions are described in the figures and tables. The reaction was started by adding NADPH, and fluorescence was measured at 2 min intervals for 40 min using excitation at 405 nm and emission at 460 nm for oxidation of coumarin derivatives[18] and excitation at 570 nm and emission at 615 nm for ethoxyresorufin or pentoxyresorufin 7-O-dealkylations. Incubations without the substrate, enzyme, or NADPH were used as blank reactions. Resorufin was used as a standard, and 3-(4-fluorophenyl)-7-hydroxycoumarin was used as the surrogate standards to calculate the amount of product formed. The linear phase of the reactions was used for calculations.
(§3) Enzyme kinetic parameters were analyzed using the nonlinear Michaelis–Menten equation v = Vmax × S/(Km + S), in which v is the rate for 7-hydroxylation of a coumarin derivative, S is its concentration, and Vmax value is the limiting rate of the reaction of 7-hydroxylation, which reached a half-maximal rate at a concentration of Km for the substrate.

Substrate in data set [2]: CCOc1ccc2nc3ccc(=O)cc-3oc2c1
The procedure:
as §1, §2, §3

Substrate in data set [3]: COc1ccc(-c2cc3cc(OC(C)=O)ccc3oc2=O)cc1
As to the method:
as §1, §2, §3

Substrate in data set [4]: COc1ccc2cc(-c3ccc(OC(F)(F)F)cc3)c(=O)oc2c1
As to the method:
as §1, §2, §3

Substrate in data set [5]: COc1ccc2oc(=O)c(-c3ccc(O)c(F)c3)cc2c1
The procedure:
as §1, §2, §3

Substrate in data set [6]: COc1ccc2oc(=O)c(-c3ccc(OC(F)(F)F)cc3)cc2c1
The procedure: as §1, §2, §3

Substrate in data set [7]: COc1cccc(-c2cc3cc(OC)ccc3oc2=O)c1
The procedure:
as §1, §2, §3

Substrate in data set [8]: Cc1ccc2oc(=O)c(-c3ccc(F)cc3)cc2c1
The procedure:
as §1, §2, §3

Substrate in data set [9]: O=c1oc2ccc(O)cc2cc1-c1cccc(O)c1
The procedure: as §1, §2, §3

Substrate in data set [10]: O=c1oc2ccccc2cc1-c1cccc(O)c1
The procedure:
as §1, §2, §3

B1: human CYP1A2 (Homo sapiens) (protein)
chain: MALSQSVPFSATELLLASAIFCLVFWVLKGLRPRVPKGLKSPPEPWGWPLLGHVLTLGKNPHLALSRMSQRYGDVLQIRIGSTPVLVLSRLDTIRQALVRQGDDFKGRPDLYTSTLITDGQSLTFSTDSGPVWAARRRLAQNALNTFSIASDPASSSSCYLEEHVSKEAKALISRLQELMAGPGHFDPYNQVVVSVANVIGAMCFGQHFPESSDEMLSLVKNTHEFVETASSGNPLDFFPILRYLPNPALQRFKAFNQRFLWFLQKTVQEHYQDFDKNSVRDITGALFKHSKKGPRASGNLIPQEKIVNLVNDIFGAGFDTVTTAISWSLMYLVTKPEIQRKIQKELDTVIGRERRPRLSDRPQLPYLEAFILETFRHSSFLPFTIPHSTTRDTTLNGFYIPKKCCVFVNQWQVNHDPELWEDPSEFRPERFLTADGTAINKPLSEKMMLFGMGKRRCIGEVLAKWEIFLFLAILLQQLEFSVPPGVKVDLTPIYGLTMKHARCEHVQARLRFSIN
notes: purchased BD Biosciences Discovery Labware (Woburn, MA, USA); host or cells: baculovirus-insect cells
On to B1, for which the Km in [1] is listed as 2 (1.2–2.7) μM; in data set [2], 0.56 (0.44–0.68) μM; in data set [3], 2.2 (1.6–2.8) μM; in data set [4], 7.9 (5.1–10.6) μM; in data set [5], 20.3 (0–53) μM; in data set [6] it was 0.96 (0.61–1.32) μM. Besides, the Km in data set [7] is 0.27 (0.19–0.36) μM; in data set [8] it was 7.6 (0.59–14.6) μM; in data set [9], 2.4 (1.8–3.1) μM; in [10], 47 (8–86) μM. Moreover, the kcat is listed as 1.2 (1.1–1.4) mol/(min·mol CYP) in data set [1]; 3.2 (2.9–3.6) mol/(min·mol CYP) in [2]; 8.7 (8–9.4) mol/(min·mol CYP) in [3]; 9.1 (7.8–10.5) mol/(min·mol CYP) in data set [4]; 6.0 (0–12.8) mol/(min·mol CYP) in [5]; 4.4 (4.1–4.8) mol/(min·mol CYP) in [6]. For the same protein, the kcat in [7] was 8.2 (7.6–8.9) mol/(min·mol CYP); in [8], 1 (0.63–1.38) mol/(min·mol CYP); in data set [9], 29.8 (27.5–32.2) mol/(min·mol CYP); in data set [10] it was 0.4 (0.19–0.6) mol/(min·mol CYP).
